Patent US20030104423

Target: σ70, native, untagged (pLN12) (UniProt P00579)
Sequence (P00579 whole entry): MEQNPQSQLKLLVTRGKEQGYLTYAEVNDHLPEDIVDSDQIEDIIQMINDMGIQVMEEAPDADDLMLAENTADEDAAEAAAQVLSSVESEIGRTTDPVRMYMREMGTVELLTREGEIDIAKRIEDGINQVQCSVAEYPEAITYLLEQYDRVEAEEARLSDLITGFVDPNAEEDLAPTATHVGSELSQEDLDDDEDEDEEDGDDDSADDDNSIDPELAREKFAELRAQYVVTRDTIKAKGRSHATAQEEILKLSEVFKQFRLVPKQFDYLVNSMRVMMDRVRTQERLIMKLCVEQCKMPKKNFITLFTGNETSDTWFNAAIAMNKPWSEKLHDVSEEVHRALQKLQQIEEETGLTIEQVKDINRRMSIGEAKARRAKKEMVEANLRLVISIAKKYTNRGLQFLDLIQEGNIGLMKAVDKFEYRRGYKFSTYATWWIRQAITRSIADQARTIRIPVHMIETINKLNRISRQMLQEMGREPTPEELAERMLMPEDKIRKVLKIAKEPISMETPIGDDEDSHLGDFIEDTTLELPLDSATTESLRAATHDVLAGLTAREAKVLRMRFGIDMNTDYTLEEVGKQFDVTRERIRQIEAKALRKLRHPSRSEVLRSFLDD

Substance: β′ 1-1407 wild type with C-terminal His6 (pTA577)
- Growth at 42° C. with plasmid β′ as sole source of β′ (strain RL602): +
